Data from article PMC4011921 (mAbs, 2014).

Tests used:
[1] = target: human IL-6 (Homo sapiens, UniProt P05231); assay: SPR
[2] = target: cynomolgus IL-6 (cynomolgus, UniProt P79341); assay: SPR
Chain of cynomolgus IL-6 (P79341 28-212): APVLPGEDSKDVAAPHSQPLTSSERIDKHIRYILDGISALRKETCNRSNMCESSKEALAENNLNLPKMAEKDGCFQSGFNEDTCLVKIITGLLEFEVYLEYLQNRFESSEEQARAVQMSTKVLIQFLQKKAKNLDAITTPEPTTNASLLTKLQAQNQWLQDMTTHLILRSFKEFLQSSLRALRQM

Chain of human IL-6 (P05231 30-212): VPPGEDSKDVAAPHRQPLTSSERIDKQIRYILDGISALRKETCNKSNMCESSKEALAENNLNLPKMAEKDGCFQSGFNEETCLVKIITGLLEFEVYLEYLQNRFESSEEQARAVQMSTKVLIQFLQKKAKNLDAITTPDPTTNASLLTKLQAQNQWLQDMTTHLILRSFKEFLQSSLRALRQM

Kd [1]: 0.01 nM
binding result [2]: binds
B1: olokizumab (antibody, V domains shown)
VH: EVQLVESGGGLVQPGGSLRLSCAASGFNFNDYFMNWVRQAPGKGLEWVAQMRNKNYQYGTYYAESLEGRFTISRDDSKNSLYLQMNSLKTEDTAVYYCARESYYGFTSYWGQGTLVTVSS
VL: DIQMTQSPSSLSASVGDRVTITCQASQDIGISLSWYQQKPGKAPKLLIYNANNLADGVPSRFSGSGSGTDFTLTISSLQPEDFATYYCLQHNSAPYTFGQGTKLEIK
